Measurements taken from publication PMC11700292, “Specific inhibition of fibroblast growth factor receptor 1 signaling by a DNA aptamer”.

T1: FGFR4 extracellular domain-Fc (human, UniProt P22455 22-369)
T1 sequence: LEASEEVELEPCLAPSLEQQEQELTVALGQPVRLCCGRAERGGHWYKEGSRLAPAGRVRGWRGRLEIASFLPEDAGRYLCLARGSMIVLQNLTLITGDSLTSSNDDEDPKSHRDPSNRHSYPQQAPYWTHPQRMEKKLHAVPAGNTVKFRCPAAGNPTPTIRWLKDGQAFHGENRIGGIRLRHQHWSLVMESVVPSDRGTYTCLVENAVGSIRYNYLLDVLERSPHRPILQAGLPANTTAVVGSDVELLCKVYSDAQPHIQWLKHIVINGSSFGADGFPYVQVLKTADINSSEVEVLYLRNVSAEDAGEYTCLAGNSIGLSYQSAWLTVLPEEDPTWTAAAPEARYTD


Experiments:
[1] = target: FGFR1b extracellular domain-Fc (human) (UniProt P11362); assay: BLI; details: BLI (Octet K2, protein A sensor, FGFR-Fc 5 ug/mL), VZ23 31.25-500 nM in PBS (8.1 mM Na2HPO4, 1.5 mM NaH2PO4, 137 mM NaCl, 2.7 mM KCl as given for NMR) with or …
Chain of FGFR1b extracellular domain-Fc (human) (P11362 whole entry, the tested form may be a part): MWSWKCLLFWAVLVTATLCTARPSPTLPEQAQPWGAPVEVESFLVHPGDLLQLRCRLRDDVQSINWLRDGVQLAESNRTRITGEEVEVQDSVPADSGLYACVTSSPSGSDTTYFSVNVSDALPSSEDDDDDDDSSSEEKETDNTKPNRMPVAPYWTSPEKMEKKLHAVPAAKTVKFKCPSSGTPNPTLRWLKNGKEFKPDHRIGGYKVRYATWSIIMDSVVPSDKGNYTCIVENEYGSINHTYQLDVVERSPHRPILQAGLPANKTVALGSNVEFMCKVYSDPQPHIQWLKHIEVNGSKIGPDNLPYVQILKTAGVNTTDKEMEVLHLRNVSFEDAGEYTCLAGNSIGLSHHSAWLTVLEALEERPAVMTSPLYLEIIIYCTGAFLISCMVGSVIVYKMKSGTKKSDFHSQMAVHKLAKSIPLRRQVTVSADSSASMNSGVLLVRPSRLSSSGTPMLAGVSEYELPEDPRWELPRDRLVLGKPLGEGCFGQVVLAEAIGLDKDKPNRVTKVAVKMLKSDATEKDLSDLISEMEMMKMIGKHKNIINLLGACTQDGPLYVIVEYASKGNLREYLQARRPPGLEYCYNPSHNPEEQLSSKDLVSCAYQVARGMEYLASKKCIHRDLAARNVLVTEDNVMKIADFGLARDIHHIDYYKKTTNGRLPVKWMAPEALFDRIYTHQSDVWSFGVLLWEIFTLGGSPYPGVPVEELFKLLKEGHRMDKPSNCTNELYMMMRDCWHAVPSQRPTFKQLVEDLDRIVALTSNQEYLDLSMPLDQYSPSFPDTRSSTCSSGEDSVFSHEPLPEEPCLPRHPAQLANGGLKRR

[2] = target: T2, FGFR1c extracellular domain-Fc (human, UniProt P11362-1 22-376); assay: BLI; 2 mM Mg2+; BLI (Octet K2, protein A sensor, FGFR-Fc 5 ug/mL), VZ23 31.25-500 nM in PBS (8.1 mM Na2HPO4, 1.5 mM NaH2PO4, 137 mM NaCl, 2.7 mM KCl as given for NMR) with or without 2 mM MgCl2; pH 7.3 (stated for CD); temperature not stated; details: protein: recombinant; tags: IgG1 Fc fusion; antiparallel G-quadruplex-like fold
T2 sequence (P11362 22-376): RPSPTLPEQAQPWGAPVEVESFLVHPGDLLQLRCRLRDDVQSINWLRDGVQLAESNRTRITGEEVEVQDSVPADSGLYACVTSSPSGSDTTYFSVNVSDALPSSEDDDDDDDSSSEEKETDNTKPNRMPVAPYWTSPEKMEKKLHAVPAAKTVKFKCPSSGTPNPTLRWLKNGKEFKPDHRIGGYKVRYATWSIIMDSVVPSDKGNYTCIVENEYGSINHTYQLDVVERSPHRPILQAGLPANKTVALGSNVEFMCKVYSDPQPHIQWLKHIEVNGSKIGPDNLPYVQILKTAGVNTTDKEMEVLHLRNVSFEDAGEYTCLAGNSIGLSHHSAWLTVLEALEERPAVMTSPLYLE

[3] = target: T2, FGFR1c extracellular domain-Fc; assay: BLI; PBS, no Mg2+; BLI (Octet K2, protein A sensor, FGFR-Fc 5 ug/mL), VZ23 31.25-500 nM in PBS (8.1 mM Na2HPO4, 1.5 mM NaH2PO4, 137 mM NaCl, 2.7 mM KCl as given for NMR) with or without 2 mM MgCl2; pH 7.3 (stated for CD); temperature not stated; details: protein: recombinant; tags: IgG1 Fc fusion; antiparallel G-quadruplex-like fold
[4] = target: T1, FGFR4 extracellular domain-Fc; assay: BLI; BLI (Octet K2, protein A sensor, FGFR-Fc 5 ug/mL), VZ23 31.25-500 nM in PBS (8.1 mM Na2HPO4, 1.5 mM NaH2PO4, 137 mM NaCl, 2.7 mM KCl as given for NMR) with or without 2 mM MgCl2; pH 7.3 (stated for CD); temperature not stated; details: protein: recombinant; tags: IgG1 Fc fusion; antiparallel G-quadruplex-like fold
[5] = target: FGFR2b extracellular domain-Fc (human, UniProt P21802-3 22-378); assay: as above; details: protein: recombinant; tags: IgG1 Fc fusion; antiparallel G-quadruplex-like fold
Chain of FGFR2b extracellular domain-Fc (P21802 other isoform, or with tags, fused parts or gaps): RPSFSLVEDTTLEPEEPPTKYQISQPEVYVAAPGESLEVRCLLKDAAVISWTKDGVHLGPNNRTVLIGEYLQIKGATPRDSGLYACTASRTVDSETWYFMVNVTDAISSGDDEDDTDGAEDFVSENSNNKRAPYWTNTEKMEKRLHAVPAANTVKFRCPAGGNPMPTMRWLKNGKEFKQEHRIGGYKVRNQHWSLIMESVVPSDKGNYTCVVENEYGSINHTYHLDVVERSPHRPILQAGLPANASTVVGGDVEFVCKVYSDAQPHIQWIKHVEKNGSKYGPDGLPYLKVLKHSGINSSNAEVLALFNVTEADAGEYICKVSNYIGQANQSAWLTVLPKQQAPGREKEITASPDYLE

[6] = target: FGFR3c extracellular domain-Fc (human, UniProt P22607 23-375); assay: as above; details: protein: recombinant; tags: IgG1 Fc fusion; antiparallel G-quadruplex-like fold
Chain of FGFR3c extracellular domain-Fc (P22607 23-375): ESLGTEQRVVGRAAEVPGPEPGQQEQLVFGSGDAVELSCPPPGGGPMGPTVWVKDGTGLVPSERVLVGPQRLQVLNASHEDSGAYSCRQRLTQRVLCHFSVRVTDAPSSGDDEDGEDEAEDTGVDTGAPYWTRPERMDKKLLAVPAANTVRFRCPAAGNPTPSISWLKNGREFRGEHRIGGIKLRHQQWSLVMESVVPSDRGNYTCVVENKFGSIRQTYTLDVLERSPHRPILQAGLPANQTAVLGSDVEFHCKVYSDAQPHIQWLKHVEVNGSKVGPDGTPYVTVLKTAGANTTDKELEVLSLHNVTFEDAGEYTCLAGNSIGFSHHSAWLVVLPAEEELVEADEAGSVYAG

[7] = target: FGFR2c extracellular domain-Fc (human, UniProt P21802 22-377); assay: as above; details: protein: recombinant; tags: IgG1 Fc fusion; antiparallel G-quadruplex-like fold
Chain of FGFR2c extracellular domain-Fc (P21802 22-377): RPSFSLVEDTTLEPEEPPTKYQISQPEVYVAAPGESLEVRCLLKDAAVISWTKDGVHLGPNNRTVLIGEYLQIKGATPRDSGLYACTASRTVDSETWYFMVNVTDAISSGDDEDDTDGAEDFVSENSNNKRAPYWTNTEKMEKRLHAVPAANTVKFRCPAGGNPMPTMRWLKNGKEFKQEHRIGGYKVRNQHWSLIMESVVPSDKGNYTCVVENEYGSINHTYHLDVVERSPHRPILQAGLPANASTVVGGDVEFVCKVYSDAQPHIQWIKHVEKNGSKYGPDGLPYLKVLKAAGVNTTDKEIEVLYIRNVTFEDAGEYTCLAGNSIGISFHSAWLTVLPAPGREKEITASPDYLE

[8] = target: FGFR3b extracellular domain-Fc (human, UniProt P22607-2 23-377); assay: as above; details: protein: recombinant; tags: IgG1 Fc fusion; antiparallel G-quadruplex-like fold
Chain of FGFR3b extracellular domain-Fc (P22607 other isoform, or with tags, fused parts or gaps): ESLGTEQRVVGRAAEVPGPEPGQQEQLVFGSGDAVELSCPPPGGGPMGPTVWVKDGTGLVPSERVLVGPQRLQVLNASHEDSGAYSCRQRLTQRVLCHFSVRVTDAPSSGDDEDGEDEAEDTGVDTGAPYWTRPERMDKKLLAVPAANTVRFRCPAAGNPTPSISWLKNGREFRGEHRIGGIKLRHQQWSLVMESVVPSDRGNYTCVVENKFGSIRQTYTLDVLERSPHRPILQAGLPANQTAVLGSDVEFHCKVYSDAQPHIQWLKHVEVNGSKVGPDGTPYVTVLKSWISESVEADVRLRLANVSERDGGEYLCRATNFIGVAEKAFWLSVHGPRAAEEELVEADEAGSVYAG

[9] = target: FGFR1c extracellular domain-Fc;FGF1 (human;human, UniProt P11362-1;P05230 22-376;16-155, |); assay: BLI; preformed FGF1:FGFR1c complex; 250 nM each; BLI (Octet K2, protein A sensor, FGFR-Fc 5 ug/mL), VZ23 31.25-500 nM in PBS (8.1 mM Na2HPO4, 1.5 mM NaH2PO4, 137 mM NaCl, 2.7 mM KCl as given for NMR) with or without 2 mM MgCl2; pH 7.3 (stated for CD); temperature not stated; details: protein: recombinant;commercial; tags: IgG1 Fc fusion;; antiparallel G-quadruplex-like fold
Chain of FGFR1c extracellular domain-Fc;FGF1 (P11362 22-376, chain 1 of 2): as the sequence (P11362 22-376) above
Chain of FGFR1c extracellular domain-Fc;FGF1 (P05230 16-155, chain 2 of 2): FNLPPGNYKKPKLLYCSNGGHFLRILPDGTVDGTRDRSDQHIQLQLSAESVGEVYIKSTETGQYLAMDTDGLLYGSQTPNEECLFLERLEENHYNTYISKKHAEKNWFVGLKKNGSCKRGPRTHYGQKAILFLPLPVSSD

| Molecule | Kd ([1]; 2 mM Mg2+) [nM] | Kd ([1]; PBS, no Mg2+) [nM] | Kd [2] [nM] | Kd [3] [nM] | binding result [4] | binding result [5] | binding result [6] | binding result [7] | binding result [8] | binding result [9] |
| --- | --- | --- | --- | --- | --- | --- | --- | --- | --- | --- |
| GGGATACAGGGCTTTGTCTATGGTGTGGATGGCGGATACC [VZ23] | 29.8 | 54.6 |  |  |  |  |  |  |  |  |
| GGGATACAGGGCTTTGTCTATGGTGTGGATGGCGGATACC (structured_DNA) [VZ23] |  |  | 65.4 ± 5.5 | 162 ± 48.7 | no binding | no binding | no binding | no binding | no binding | binds |
